Targets include Human CD16a (human) (UniProt P08637); Human CD16b (human) (UniProt O75015); Human CD32a (human) (UniProt P12318); Human CD32b (human) (UniProt P31994); Human CD64 (human) (UniProt P12314).
Assay in all cases: SPR; set-up for the IgG1 comparator not stated

Consider one substance from patent US20160369002A1.

Usually Kd stands for a measure of binding affinity in units of concentration. Higher therefore signals weaker binding.

Human CD32a (human), sequence (P12318 36-218 limits assumed): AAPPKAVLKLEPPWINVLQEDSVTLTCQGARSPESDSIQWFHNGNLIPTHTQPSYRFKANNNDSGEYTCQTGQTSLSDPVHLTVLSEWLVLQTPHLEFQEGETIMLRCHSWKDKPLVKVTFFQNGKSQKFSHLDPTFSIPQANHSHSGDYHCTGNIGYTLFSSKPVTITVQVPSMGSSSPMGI
Human CD32b (human), sequence (P31994 46-217 limits assumed): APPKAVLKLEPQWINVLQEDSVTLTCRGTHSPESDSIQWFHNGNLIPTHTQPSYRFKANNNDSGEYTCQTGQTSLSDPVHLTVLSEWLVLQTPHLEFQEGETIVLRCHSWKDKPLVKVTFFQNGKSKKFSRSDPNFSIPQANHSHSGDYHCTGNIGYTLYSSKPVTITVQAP
Human CD16a (human), sequence (P08637 17-208 limits assumed): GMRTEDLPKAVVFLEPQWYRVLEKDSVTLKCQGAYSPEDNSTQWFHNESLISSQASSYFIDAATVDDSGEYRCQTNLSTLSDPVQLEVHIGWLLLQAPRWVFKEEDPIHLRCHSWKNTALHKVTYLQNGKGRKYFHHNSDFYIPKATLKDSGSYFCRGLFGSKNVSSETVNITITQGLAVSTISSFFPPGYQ
Human CD16b (human), sequence (O75015 17-200 limits assumed): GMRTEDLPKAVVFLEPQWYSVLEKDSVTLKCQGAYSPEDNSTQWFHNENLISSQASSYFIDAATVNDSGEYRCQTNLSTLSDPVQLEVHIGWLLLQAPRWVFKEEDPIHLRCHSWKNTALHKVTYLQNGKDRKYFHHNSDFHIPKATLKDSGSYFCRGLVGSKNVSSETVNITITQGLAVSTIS
Human CD64 (human), sequence (P12314 16-288 limits assumed): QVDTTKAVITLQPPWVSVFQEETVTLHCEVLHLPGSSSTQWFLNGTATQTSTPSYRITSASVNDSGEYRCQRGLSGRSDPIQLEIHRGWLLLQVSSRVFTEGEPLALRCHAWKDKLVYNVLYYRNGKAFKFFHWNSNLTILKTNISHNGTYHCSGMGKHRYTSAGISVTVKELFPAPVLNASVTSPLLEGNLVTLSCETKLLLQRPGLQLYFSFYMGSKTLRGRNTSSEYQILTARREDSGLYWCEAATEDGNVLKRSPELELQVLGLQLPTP

As for Full length human IgG1 antibody, the Kd with Human CD16a (human) amounted to 630 nM; in the assay with Human CD16b (human), 2410 nM; with Human CD32a (human), 379 nM; in the assay with Human CD32b (human), 1180 nM; in the assay with Human CD64 (human), 0.24 nM.
